Results reported in IntAct's records for PubMed 16377563.

Columns and labels:
h2ax_human H2AX [1] = target: h2ax_human H2AX (UniProt P16104)
h2ax_human H2AX [2] = target: h2ax_human H2AX (UniProt P16104); remark: listed apart in the source
h2ax_human H2AX [3] = target: h2ax_human H2AX (UniProt P16104); remark: listed apart in the source

effect of a mutation on the interaction (h2ax_human H2AX [1]) | effect of a mutation on the interaction (h2ax_human H2AX [2]) | effect of a mutation on the interaction (h2ax_human H2AX [3]) | Substance
decreasing interaction | disrupting interaction | – | Mediator of DNA damage checkpoint protein 1 (Homo sapiens), Q14676 K1936M
– | – | disrupting interaction | Mediator of DNA damage checkpoint protein 1 (Homo sapiens), Q14676 R1933Q
– | – | decreasing interaction | Mediator of DNA damage checkpoint protein 1 (Homo sapiens), Q14676 T1898V
